Data taken from patent US20230295316A1 (FRED HUTCHINSON CANCER CENTER, published 2023).

How the values were obtained:
[1] = target: T1, human interleukin-3 (IL-3) receptor alpha-chain (CD123), on cells (human, UniProt P26951 19-378); test: flow cytometry (APC-A), mAb reacted with 5, 10 or 15 equivalents of B10 + secondary antibody, RS4;11 cells overexpressing human CD123 [CONT.]
T1 construct: whole, on cells; also called human CD123
Source text: (§1) FIG. 4. Parental CD123-negative human RS4;11 ALL cells and RS4;11 cells engineered to overexpress human CD123 were used for flow cytometric phenotyping of a series of anti-CD123 mAbs (11F11, 5G4, 10C4, 1H8) that were either left unmodified or were reacted with 5, 10, or 15 equivalents of B10. A secondary mAb-only control is also shown.

[2] = target: T1, human interleukin-3 (IL-3) receptor …; test: flow cytometry (APC-A), unmodified mAb + secondary antibody, RS4;11 cells overexpressing human CD123 [CONT.]
Source text: as §1

[3] = target: T1, human interleukin-3 (IL-3) receptor …; test: flow cytometry (PE-A), 2 µg/mL by the legend (hybridoma supernatants by paragraph 203) + labeled secondary antibody, parental MOLM-13 cells against MOLM-13 CD123KO
[4] = target: T2, Hs_CD123_6His-Avi (CD123 ECD-His-Avi fusion protein) (human, UniProt P26951 19-303); test: SPR (Biacore T-100), univalent affinity; antibody captured on the CM4 chip, human CD123 ECD as analyte
T2 construct: The signal peptide is marked only by bold type, so its limits cannot be read here and were not guessed; also called His-Avi tagged peptide encompassing the ECD of human CD123
T2 sequence: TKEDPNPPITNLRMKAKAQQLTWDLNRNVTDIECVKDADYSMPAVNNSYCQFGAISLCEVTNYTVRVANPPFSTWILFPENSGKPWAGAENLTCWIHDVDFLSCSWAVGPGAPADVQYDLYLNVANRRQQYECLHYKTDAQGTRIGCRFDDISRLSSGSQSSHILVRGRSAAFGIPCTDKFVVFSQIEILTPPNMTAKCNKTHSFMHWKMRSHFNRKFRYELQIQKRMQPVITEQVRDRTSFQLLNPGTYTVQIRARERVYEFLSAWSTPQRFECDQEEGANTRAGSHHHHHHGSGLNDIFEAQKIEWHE
Procedure: FIGS. 21A-21B. Surface plasmon resonance (Biacore T-100) analyses were performed to rigorously/precisely determine univalent binding affinities of recombinant, fully human versions of the anti-human CD123 monoclonal antibodies 1B5, 1D9, and 1E3, using human IgG1 (FIG. 21A) and human IgG4 frameworks (FIG. 21B). For these experiments, a peptide encoding the complete extracellular portion of human CD123 was used, and the antibodies were captured on the biosensor chip (CM4) via a Fc gamma-specific goat anti-human IgG and amine coupling.

[5] = target: T1, human interleukin-3 (IL-3) receptor …; test: flow cytometry (PE-Cy7-A), mAb + labeled secondary antibody, RS4;11 cells transduced with human CD123

B1: 11F11 reacted with B10 (antibody, V domains shown)
VH: EVTLVESGGGLEQPGGSLSLSCAASGFTFTDYYMSWVRQPPGKALEWLALIRNKANGYTTEYSASVKGRFTISRDNSQSILYLQMNALRAEDSATYYCARQVRNYYGYEEDALDYWGQGTSVTVSS
VL: DIVLTQSPASLAVSLGQRATISCRASESLDFYGNSFMHWYQQKSGQPPKLLISRASNLESGIPPRFSGSGSRTDFTLTIDPVEADDVATYYCQQSYEDPYTFGGGTKLEIK
modifications: B10 on lysine amines, positions not given; B10 (isothiocyantophenethyl-ureido-closo-decaborate(2-)) on lysine amines, positions not given
notes: also called B10-conjugated 11F11
[1]
  binding result: binds

B2: 123-5G4 (murine anti-CD123 antibody, IgG2a isotype, Kappa Light Chain) (antibody, V domains shown)
VH: DVQLQESGPGLVKPSQSLSLTCTVTGYSITSDYVWNWIRQFPGNKLEWMAYISYSGTTSYNPSLSSRISITRDTSSNQFFLQLNSVTSEDTATYYCARGLDYWGQGTSVTVSS
VL: QIVLTQSPAIMSVSLGERVTMTCTASSSVTSSYFHWYQQKPGSSPKLWIYSTSNLASGVPARFSGSGSGTSYSLTISSMEAEDAATYYCHQYHRSPRTFGGGTKLEIK
notes: murine IgG2a, kappa
[2]
  binding result: binds

B3: 5G4 reacted with B10 (antibody, V domains shown)
VH: DVQLQESGPGLVKPSQSLSLTCTVTGYSITSDYVWNWIRQFPGNKLEWMAYISYSGTTSYNPSLSSRISITRDTSSNQFFLQLNSVTSEDTATYYCARGLDYWGQGTSVTVSS
VL: QIVLTQSPAIMSVSLGERVTMTCTASSSVTSSYFHWYQQKPGSSPKLWIYSTSNLASGVPARFSGSGSGTSYSLTISSMEAEDAATYYCHQYHRSPRTFGGGTKLEIK
modifications: B10 on lysine amines, positions not given; B10 (isothiocyantophenethyl-ureido-closo-decaborate(2-)) on lysine amines, positions not given
notes: also called B10-conjugated 5G4
[1]
  binding result: binds

B4: 10C4-B10 (B10-conjugated 10C4 anti-CD123 mAb) (antibody, V domains shown)
VH: QVQLKESGPGLVAPSQNLSITCTVSGFSLTTYDINWIRQPPGKGLEWLGVIWTGGGTNYNSAFMSRLSISKDNSKSQVFLKMNSLQTDDTAMYYCVRGDTYHYALDFWGQGTSVTVSS
VL: DIVMSQSPSSLAVSAGEKVTMSCKSSQSLLSSGTRKNYLAWYQQKPGQSPKLLIYWASTRESGVPDRFTGSGSGTDFTLTISSVQAEDLAVYYCKQSYILFTFGSGTKLEIK
modifications: B10 on lysine amines, positions not given; B10 (isothiocyantophenethyl-ureido-closo-decaborate(2-)) on lysine amines, positions not given
[1]
  binding result: binds

B5: 123-1H8 (murine anti-CD123 antibody, IgG1 isotype, Kappa Light Chain) (antibody, V domains shown)
VH: EVKLVESEGGLVQPGSSMKLSCTASGFTFSDYYMAWVRQVPEKGLEWVANIDDEGSSTYYLDSLKSRFIISRDNAKNILYLQMTSLKSEDTATYYCARGTTQTSFFVHWGQGTLVTVSA
VL: DIVLTQSPASLAVSLGQRATISCRASQSVSSSSYSFMHWYQKKPRQPPKLLIKYASTLEAGVPARFSGSGSGTDFTLNIHPVEEEDTATYYCQHSWEIPYTFGGGTKLEIK
notes: murine IgG1, kappa
[2]
  binding result: binds

B6: 1H8 reacted with B10 (antibody, V domains shown)
VH: EVKLVESEGGLVQPGSSMKLSCTASGFTFSDYYMAWVRQVPEKGLEWVANIDDEGSSTYYLDSLKSRFIISRDNAKNILYLQMTSLKSEDTATYYCARGTTQTSFFVHWGQGTLVTVSA
VL: DIVLTQSPASLAVSLGQRATISCRASQSVSSSSYSFMHWYQKKPRQPPKLLIKYASTLEAGVPARFSGSGSGTDFTLNIHPVEEEDTATYYCQHSWEIPYTFGGGTKLEIK
modifications: B10 on lysine amines, positions not given; B10 (isothiocyantophenethyl-ureido-closo-decaborate(2-)) on lysine amines, positions not given
notes: also called B10-conjugated 1H8
[1]
  binding result: binds

B7: 123-ATX1B2 (Human anti-CD123 antibody from ATX-GX mouse, Kappa Light Chain) (antibody, V domains shown)
VH: QVQLVQSGAEVKKPGASVEVSCKASGYTFTGYYIHWVRQAPGQGLEWMGWINPNSGGTNYAQKFQGRVTMTWDTSISTAFMELSRLRSDDTAVYSCARDRGGPYFDYWGQGTLVIVSS
VL: DIQMTQSPSSLSASVGDRVTITCQASQDITNYLNWYQQKPGKAPKLQIYDASNLETGVPSRFSGSGSGTDFTFTISSLQPEDIATYYCQQHDDLPLTFGGGTKVEIK
[3]
  binding result: binds

B8: 123-ATX1B7 (Human anti-CD123 antibody from ATX-GX mouse, Kappa Light Chain) (antibody, V domains shown)
VH: QVQLVQSGAEVKKPGASVKVSCKASGYTFTSFGLTWVRQAPGQGLEWMGWFNAYSGKTYYAPTLQDRVTMTTDPSTSTAYMELMSLTSDDTAIYYCARDLVFDYWGQGTLVTVSS
VL: EIVLTQSPGTLSLSPGERATLSCRASQSFSDRYLAWYQQKPGQAPRLLIYGTSSRATGIPDRFSGSGSGTDFTLTISRLESEDSAVYYCQQYGRSPFTFGPGTKVDIK
[3]
  binding result: binds

B9: 123-ATX1E5 (Human anti-CD123 antibody from ATX-GX mouse, Kappa Light Chain) (antibody, V domains shown)
VH: QVQLVQSGAEVKKPGASVKVSCKASGYTFTSFGISWVRQAPGQGLEWMGWFNAYSGNTYYAPTLQDRVTMTTDTSTSTAYMELMSLRSDDTAIYYCARDLVFDYWGQGTLVTVSS
VL: EIVLTQSPGTLSLSPGERATLSCRASQSFSDRYLAWYQQKPGQAPRLLIYGTFSRATGIPDRFSGSGSGTDFTLTISRLDSEDFAVYYCQQYGSSPFTFGPGTKVDIK
[3]
  binding result: binds

B10: 123-ATX1F2 (Human anti-CD123 antibody from ATX-GX mouse, Kappa Light Chain) (antibody, V domains shown)
VH: QVQLVQSGAEVKKPGASVKVSCKVSGYTLTEFSMHWVRQAPGKGLEWMGVFDPEHGATIYAQKFQGRVTMTEDTSTDTAYMDLSYLRSEDTAVYYCATYFDFWSGYSHFDFWGQGTLVTVSS
VL: DIQMTQSPSSLSASVGDRVTITCRASQGIRNDLGWYQQRPGKAPKRLIYAASSLQSGVPSRFSGSGSGTEFTLAISSLQPEDFATYSCLQHNSYPWTFGQGTKVEIK
[3]
  binding result: binds

B11: 123-ATX1D9, fully human recombinant antibody, human IgG1 framework (antibody)
heavy: not shown
light: QSALTQPPSASGSPGQSVTISCTGTSSDVGGYNYVSWYQQHPGKAPKIMIYEVNKRPAGVPDRFSGSKSGNTASLTVSGLQAEDEAHYYCNSYTDSNNLIFGGGTKLTVLGQPKANPTVTLFPPSSEELQANKATLVCLISDFYPGAVTVAWKADGSPVKAGVETTKPSKQSNNKYAASSYLSLTPEQWKSHRSYSCQVTHEGSTVEKTVAPTECS
notes: Lambda light chain; also called 1D9 (human IgG1)
[4]
  Kd: 0.563 nM
  koff: 3.68e-05 s⁻¹
  kon: 65500 M⁻¹ s⁻¹

B12: 123-ATX1D9, fully human recombinant antibody, human IgG4 framework (antibody)
heavy: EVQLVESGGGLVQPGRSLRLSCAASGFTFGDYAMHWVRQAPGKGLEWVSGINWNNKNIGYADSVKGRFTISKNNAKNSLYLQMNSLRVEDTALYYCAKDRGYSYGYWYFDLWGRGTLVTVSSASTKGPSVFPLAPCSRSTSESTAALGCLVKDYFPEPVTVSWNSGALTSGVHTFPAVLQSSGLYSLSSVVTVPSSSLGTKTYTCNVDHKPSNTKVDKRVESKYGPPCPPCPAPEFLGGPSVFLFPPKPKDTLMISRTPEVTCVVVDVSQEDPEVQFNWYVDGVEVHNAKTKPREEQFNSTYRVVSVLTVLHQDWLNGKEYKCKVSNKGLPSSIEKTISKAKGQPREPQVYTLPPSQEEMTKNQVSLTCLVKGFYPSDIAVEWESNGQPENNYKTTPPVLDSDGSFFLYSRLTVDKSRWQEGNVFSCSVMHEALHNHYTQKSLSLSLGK
light: QSALTQPPSASGSPGQSVTISCTGTSSDVGGYNYVSWYQQHPGKAPKIMIYEVNKRPAGVPDRFSGSKSGNTASLTVSGLQAEDEAHYYCNSYTDSNNLIFGGGTKLTVLGQPKANPTVTLFPPSSEELQANKATLVCLISDFYPGAVTVAWKADGSPVKAGVETTKPSKQSNNKYAASSYLSLTPEQWKSHRSYSCQVTHEGSTVEKTVAPTECS
notes: Lambda light chain; also called 1D9 (human IgG4)
[4]
  Kd: 0.594 nM
  koff: 4.19e-05 s⁻¹
  kon: 70600 M⁻¹ s⁻¹

B13: 123-ATX1E3, fully human recombinant antibody, human IgG1 framework (antibody)
heavy: not shown
light: EIVLMQSPGTLSLSPGERVTLSCRASQTFSSSYLAWYQQKPGQAPRLLIYGASSRATGIPDRFSGSGSGTDFTLTINRLEPEDFAVYYCQQYGRSPFTFGPGTKLDIKRTVAAPSVFIFPPSDEQLKSGTASVVCLLNNFYPREAKVQWKVDNALQSGNSQESVTEQDSKDSTYSLSSTLTLSKADYEKHKVYACEVTHQGLSSPVTKSFNRGEC
notes: also called 1E3 (human IgG1)
[4]
  Kd: 0.652 nM
  koff: 6.15e-05 s⁻¹
  kon: 94400 M⁻¹ s⁻¹

B14: 123-ATX1E3, fully human recombinant antibody, human IgG4 framework (antibody)
heavy: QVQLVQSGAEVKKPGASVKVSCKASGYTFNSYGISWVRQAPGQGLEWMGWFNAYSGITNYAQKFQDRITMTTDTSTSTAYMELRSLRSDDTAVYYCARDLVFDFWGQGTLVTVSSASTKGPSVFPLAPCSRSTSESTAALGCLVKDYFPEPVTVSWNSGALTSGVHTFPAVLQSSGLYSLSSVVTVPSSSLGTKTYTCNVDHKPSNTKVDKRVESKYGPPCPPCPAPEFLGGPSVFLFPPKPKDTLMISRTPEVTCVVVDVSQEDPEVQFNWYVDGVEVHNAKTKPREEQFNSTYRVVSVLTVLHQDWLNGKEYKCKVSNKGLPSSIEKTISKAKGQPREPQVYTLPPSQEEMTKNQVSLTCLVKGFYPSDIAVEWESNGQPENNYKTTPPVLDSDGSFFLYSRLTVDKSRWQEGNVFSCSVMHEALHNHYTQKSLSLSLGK
light: EIVLMQSPGTLSLSPGERVTLSCRASQTFSSSYLAWYQQKPGQAPRLLIYGASSRATGIPDRFSGSGSGTDFTLTINRLEPEDFAVYYCQQYGRSPFTFGPGTKLDIKRTVAAPSVFIFPPSDEQLKSGTASVVCLLNNFYPREAKVQWKVDNALQSGNSQESVTEQDSKDSTYSLSSTLTLSKADYEKHKVYACEVTHQGLSSPVTKSFNRGEC
notes: also called 1E3 (human IgG4)
[4]
  Kd: 0.792 nM
  koff: 7.02e-05 s⁻¹
  kon: 88600 M⁻¹ s⁻¹

B15: 123-13E1 (murine anti-CD123 antibody, IgG2b isotype, Kappa Light Chain) (antibody, V domains shown)
VH: EVQLQQSGPELVKPGASVKISCKASGYTFTDHYMNWVKQSHGERLEWIGDIIPNNGGSTYSQKFKGKATLTVDKSSSTAYMELRSLTSEDSAVYYCARNGYYWYFDVWGTGTTVTVSS
VL: DIVLTQSPSSLAMSVGQKVTMSCKSSQSLLNSSNQKNYLAWYQQKPGQSPKLLVYFASTRESGVPDRFTGSGSGTDFTLTISTVQAEDLAFYYCHQHYSIPRTFGGGTKLEIT
notes: murine IgG2b, kappa
[5]
  binding result: binds

B16: 123-12A10 (murine anti-CD123 antibody, IgG2b isotype, Kappa Light Chain) (antibody, V domains shown)
VH: EVQLQQSGPELVKPGASVKISCKTSGYTFTDYYMNWVKQSHGKSLEWIGDIIPNNGGTSYHQKFKGKATLTVDKSSNTAYMELRSLTSEDSAVYYCARYGSSWFFDVWGTGTTVTVSS
VL: DIVMSQSPSSLAVSVGEKVTMSCKSSQSLLHSSNQKNYLAWYQQKPGQSPKLLIYWASTRESGVPDRFTGSGSGTDFTLTISSVKAEDLAVYYCQQYYSFPRTFGGGTKLEIK
notes: murine IgG2b, kappa
[5]
  binding result: binds

B17: 123-5C7 (murine anti-CD123 antibody, IgG2b isotype, Kappa Light Chain) (antibody, V domains shown)
VH: DVQLQESGPGLVKPSQSLSLTCSVTGYSITSSYYWNWIRQFPGNKLEWMGYISYDGSNNYNPSLKNRISITRDTSKTQFFLNLNSVTTEDTATYYCARGDGYYFDYWGQGTTLTVSS
VL: DFVMSQSPSSLAVSVGEKITINCKSSQSLFFGSTQKNYLAWYQQKPGQSPKLLIFWSSTRESGVPDRFTGSGSGTDFTLSINSVKAEDLAVYYCQQYYNYPWTFGGGTKLEIK
notes: murine IgG2b, kappa
[5]
  binding result: binds
